Results taken from the supplement of paper PMC9170038.

Tests used:
[1] = tested on: MS2 coat protein; test: apparent KD of MS2 coat protein, switch ON state; designed switch direction (-1 OFF switch, 1 ON switch): 1; higher = weaker reporter binding; conditions: FMN input: 0 or 200 uM; Eterna round: R93 (includes R88 designs)
How it was run: (§1)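 Designed RNA switches, transcribed on-chip from Illumina sequencing clusters, were titrated with SNAP-549-labelled MS2 coat protein from 0.7 or 1.5 nM to 3 µM in twofold steps. The solution was 100 mM Tris-HCl pH 7.5, 80 mM KCl, 4 mM MgCl2, with constant ligand or without it. Apparent KD is the median over each design's normalised cluster binding-curve fits.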

[2] = tested on: MS2 coat protein; test: apparent KD of MS2 coat protein, switch OFF state (with FMN for OFF switches, without FMN for ON switches); designed switch direction (-1 OFF switch, 1 ON switch): 1; higher = weaker reporter binding; conditions: FMN input: 0 or 200 uM; Eterna round: R93 (includes R88 designs)
How it was run: as §1

| Sequence | apparent KD of MS2 coat protein [1] | apparent KD of MS2 coat protein [2] |
| --- | --- | --- |
| AAAAAACAUGAGGAUCACCCAUGUGCAAAAUUCGCAGGAUAUUCCUCAAUUAAAUGAAAGGAAGAAGGGUGACAAA [Nob's Hobby 30 - Jieux - Same State 1] | 92.6 nM | 253 nM |
| AAAAAACAUGAGGAUCACCCAUGUGCAAAAUUCGCAGGAUAUUCUUUUUUUAAAUGAGAGGGAGAAGGGUGUAAAA [Nob's Hobby 21 - Jieux - Same State 1] | 25.5 nM | 22.4 nM |
| AAAAAACAUGAGGAUCACCCAUGUGCAAAAUUCGCAGGAUAUUUCUCAAUUAAAUGAGAGGAAGAAGGGUGACAAA [Nob's Hobby 28 - Jieux - Same State 1] | 95.9 nM | 55.3 nM |
| AAAAACAUGGUGUAGGAUAUAUUAAUAGUCACAUGAGGAUCACCCAUGUUCAUAUAUAUGAACGAGUAGAAGGACGAUGAAAAAA [Mat - Same state - Malcolm Mod - D108] | 244 nM | 237 nM |
| AAAAAGUGAUGGUAGGAUAUUGGAAAAGCCACAUGAGGAUCACCCAUGUCAAAAAACCUAAAAAACAAGAAGGGCUGUUAUAAAAA [Same State 2.2] | 18.6 nM | 24.7 nM |
| AAAACACAUGAGGAUCACCCAUGUGCAAAAUUCGCAGGAUAUUUCUCAAUUAAAUGAAAGGAAGAAGGGUGAUAAA [Nob's Hobby 34 - Jieux - Same State 1] | 19.4 nM | 29.4 nM |
| AAAACCUGCGUCGAGGAUAUGUAGCCCACUACAUGAGGAUCACCCAUGUGGAUCUUACUGGGUCGACAGAAGGUGAAAGUUAGGC [Onlele] | 36.3 nM | 34.7 nM |
| AAAAGACAUGAGGAUCACCCAUGUAAAAACAUAGGAGGAUAUGUCAUGAAAAAAGACUUGACAGAAGGCCUUUGUC [SS1 - 49] | 42 nM | 69.8 nM |
| AAAAGACAUGAGGAUCACCCAUGUCAAGACAUAGGAGGAUAUGUCUUGAAAAAAGACUUGACAGAAGGCCUUUGUC [SS1 - 58] | 16.5 nM | 21.1 nM |
| AAAAGACAUGAGGAUCACCCAUGUCCUCGGACAUGAGGAUAUGUACAGACUUCGGUCUGUACAGAAGGCAUGUAAA [SS1 - 1070] | 47.3 nM | 232 nM |
| AAAAGACAUGAGGAUCACCCAUGUGAAAACAUACAAGGAUAUGUGUGGAAACCGUACUAUACAGAAGGUGUAUGUC [SS1 - 85] | 19.7 nM | 28.5 nM |
| AAAAGACAUGAGGAUCACCCAUGUGAAAACGUGCGAGGAUAUGUAUGGAAACCAUACUGUACAGAAGGCGCGUGUC [SS1 - 83] | 24.4 nM | 32.3 nM |
| AAAAGACAUGAGGAUCACCCAUGUUAAGACGUGGGAGGAUAUGCAUGGAAAACAUGCUGUGCAGAAGGCCCGUGUC [SS1 - 23] | 19.8 nM | 78.6 nM |
| AAAAUAAAAAGGUAGGAUAUGGGUAAACCUACAUGAGGAUCACCCAUGUAAUAAAAAGAAAAAAACCAGAAGGACCAAAAUAAAA [72%, More Wateronthemoon, 9] | 12.8 nM | 55.2 nM |
| AAAAUAAAAUAAAAGGAUAUAAAAAUAUAUACAUGAGGAUCACCCAUGUAUAUAAAAAUAAAAUAAAAGAAGGAAUAAAAAUAAA [SS2 507: MS2 7] | 22.7 nM | 18.9 nM |
| AAAAUACAUGAGGAUCACCCAUGUCCGACAAAUCAAGGAUAUGAUAGCCUAACCAGGCUGUUAGAAGGUGAAAGAA [Laarera] | 637 nM | 51.1 nM |
| AAACCACAUGAGGAUCACCCAUGUAAAAAAUAUGGAGGAUAUACUAGAAGAAACAAAAUAGUAGAAGGCCAAAAAA [75%, Ex sub1, 29] | 20.3 nM | 24.6 nM |
| AAACCACAUGAGGAUCACCCAUGUAAAAAUAUGGAAGGAUAUGCGAAAAGAAACAAAGAAGCAGAAGGUCUAAAAA [75%, Ex sub1, 20] | 15.2 nM | 27.7 nM |
| AAACCACAUGAGGAUCACCCAUGUAAAAAUAUGGGAGGAUAUACUAGAAGAAACAAAAUAGUAGAAGGCCUAAAAA [75%, Ex sub1, 28] | 33.6 nM | 78.1 nM |
| AAAGAAAAACUAGAGGAUAUCUGAAUGGUAACAUGAGGAUCACCCAUGUGAAGAAAGGAACAUGAGGAGAAGGCUAGAAGAAAAA [JL Nando mod 17] | 11.4 nM | 35.4 nM |
| AAAUAAAGGAUUAAGGAUAUAUCACAUGAAACAUGAGGAUCACCCAUGUAAUAAUAUAAAGGGUGAUAGAAGGUAGUUUAUAAAUA [High Roller2] | 295 nM | 242 nM |
| AAAUAAAUGACUAAGGAUAUAUCGAAGAAGACAUGAGGAUCACCCAUGUGAUAAUAAAAAGGGUGGUAGAAGGUAGUCAACAAAC [Mod 5 of Pariah 4 by Hyphema in Round 1] | 65.4 nM | 116 nM |

| Sequence | apparent KD of MS2 coat protein [1] | apparent KD of MS2 coat protein [2] |
| --- | --- | --- |
| AAAUAAAUGACUAAGGAUAUCUCAGAGAAAACAUGAGGAUCACCCAUGUAAUAAUAACAUGAGUGAGAGAAGGUAGUCAACAAAC [Same State 2.3 (Pariah 4 -changed stack on 9nt hairpin)] | 24.3 nM | 57.5 nM |
| AAAUAACAUGAGGAUCACCCAUGUUGCAACGGUACAGGAUAUGUGGGUGAAAAUAGCAUGGCAGAAGGGUAGUGUA [SameState1 Malc#29] | 130 nM | 67.8 nM |
| AACAAUCUAUCUGAGGAUAUAUGUCAAAAGACAUGAGGAUCACCCAUGUAAAAACAUGAAAAAUCAUAGAAGGCAGAUAGAUUGA [SS2: 1135] | 67.3 nM | 88.3 nM |
| AACAAUCUAUCUGAGGAUAUAUGUCAAAAGACAUGAGGAUCACCCAUGUAAAAACAUGAAAAGACAUAGAAGGCAGAUAGAUUGA [SS2: 1133] | 25.4 nM | 35.1 nM |
| AACAAUCUAUCUGAGGAUAUCAUAAAAAAGACAUGAGGAUCACCCAUGUAGCAGGAAACUGCAUAUGAGAAGGCAGAUAGAUUGA [SS2: 1122] | 29.6 nM | 18.1 nM |
| AACAAUCUAUCUGAGGAUAUCAUGUAAAAGACAUGAGGAUCACCCAUGUAGCAGGAAACUGCAUAUGAGAAGGCAGAUAGAUUGA [SS2: 1120] | 18.4 nM | 21.3 nM |
| AACAAUCUAUCUGAGGAUAUGUGUCAAAAGACAUGAGGAUCACCCAUGUAAAAACAUGGAAAAACACAGAAGGCAGAUAGAUUGA [SS2: 1149] | 62.1 nM | 75.4 nM |
| AACAAUCUAUCUGAGGAUAUGUGUCGAAAGACAUGAGGAUCACCCAUGUAAAAACAUGGGAAGAUACAGAAGGCAGAUAGAUUGA [SS2: 1161] | 203 nM | 29.3 nM |
| AACAAUCUAUCUGAGGAUAUGUGUCGAAAGACAUGAGGAUCACCCAUGUGAAAACAUGAAAAGAUACAGAAGGCAGAUAGAUUGA [SS2: 1155] | 26.6 nM | 35.9 nM |
| AAGAAACAUGAGGAUCACCCAUGUAAACUCGAGAGAGGAUAUGGUACAUGGAAGAUCCAACUAGAAGGCUCUGGAG | 38.6 nM | 17.6 nM |
| AAGAAACAUGAGGAUCACCCAUGUACCCAAAACGGAGGAUAUGGGAAAGAAAGAAAGAAACCAGAAGGCCGAUGAA [Amyrtaeus] | 25.9 nM | 88.8 nM |
| AAGAAACAUGAGGAUCACCCAUGUACCCAAAAGGGAGGAUAUGGAAAAGAAAGAAAGAAACCAGAAGGCCCAUGAA [Artabanus the Hyrcanian] | 10.8 nM | 22.2 nM |
| AAGAAACAUGAGGAUCACCCAUGUAGAAAUAUGGGAGGAUAUACGAAGACGAAAGUCAAAGUAGAAGGCCUAAAAG [Mat - Same State 1 - Eli mod - D107] | 21 nM | 68.7 nM |
| AAGAAACAUGAGGAUCACCCAUGUGAAAUAAACACAGGAUAUGCGAAAAGAAACAAAGAAGCAGAAGGGUGAAGAA [Mat - Same State 1 - Tesla mod - 57] | 15.1 nM | 44.1 nM |
| AAGAAACAUGAGGAUCACCCAUGUGAGAUAAACACAGGAUAUGCAAAAGAAAGAAAGAAAGCAGAAGGGUGAAGAA [Mat - Same State 1 - Tesla mod - 51] | 21.6 nM | 129 nM |
| AAGAAACAUGAGGAUCACCCAUGUGAGAUAAACACAGGAUAUGCGAAAAGAAAUAAAGAAGCAGAAGGGUGAAGAA [Mat - Same State 1 - Tesla mod - 71] | 20.5 nM | 94.1 nM |
| AAGAAAGAAACAUAGGAUAUCAAGAAUAUAACAUGAGGAUCACCCAUGUAAAUACGAAAGUAUAAUGAGAAGGAUGGAUGAUCUUC [Mat - Mod of Meechl] | 24.3 nM | 34.5 nM |
| AAGAAAGAAACGCAGGAUAUGCAAAACAAAACAUGAGGAUCACCCAUGUCUUACUUACAAACAAAGCAGAAGGGCGAAAGAAAGAA [Same State 2 B] | 16.4 nM | 20 nM |
| AAGAAAGAAACGUAGGAUAUCAAGAAUAUAACAUGAGGAUCACCCAUGUAAAUACGAAAGUAUAAUGAGAAGGAUGGAUGAUCUUC [Mod of Mat of Meechl] | 22.7 nM | 32.8 nM |
| AAGCAACAUGAGGAUCACCCAUGUAGCAGGGUCAGAGGAUAUUUGAUCUUGGUAAGGGUUAAAGAAGGUUGAUAAA [Ceralete] | 159 nM | 91.1 nM |
| AAUACACAUGGUCAGGAUAUCGCAGCUAGGACAUGAGGAUCACCCAUGUAAUAAGUAAAAGUAAAUGAGAAGGGACAGGGUGACC [JR_SS002_Sub405] | 520 nM | 206 nM |
